# Laboratory results reported in US20160083733A1, “NOVEL TREATMENT OF METABOLIC DISEASES” (UNIVERSITY OF BREMEN, priority 2013, published 2016).
# B1: dnMST1: kinase-dead, dominant negative MST1 mutant (K59R) expressed from plasmid (protein, UniProt Q13043 1-487, looked up, variant K59R)
# Serine/threonine-protein …: METVQLRNPPRRQLKKLDEDSLTKQPEEVFDVLEKLGEGSYGSVYKAIHKETGQIVAIRQVPVESDLQEIIKEISIMQQCDSPHVVKYYGSYFKNTDLWIVMEYCGAGSVSDIIRLRNKTLTEDEIATILQSTLKGLEYLHFMRKIHRDIKAGNILLNTEGHAKLADFGVAGQLTDTMAKRNTVIGTPFWMAPEVIQEIGYNCVADIWSLGITAIEMAEGKPPYADIHPMRAIFMIPTNPPPTFRKPELWSDNFTDFVKQCLVKSPEQRATATQLLQHPFVRSAKGVSILRDLINEAMDVKLKRQESQQREVDQDDEENSEEDEMDSGTMVRAVGDEMGTVRVASTMTDGANTMIEHDDTLPSQLGTMVINAEDEEEEGTMKRRDETMQPAKPSFLEYFEQKEKENQINSFGKSVPGPLKNSSDWKIPQDGDYEFLKSWTVEDLQKRLLALDPMMEQEIEEIRQKYQSKRQPILDAIEAKKRRQQNF
# B2: dnJNK1: dominant negative mutant of JNK1 expressed from plasmid pCDNA3 Jnk1a1 (apf) (protein, UniProt P45983 1-427, looked up, variant T183A Y185F)
# Mitogen-activated protein …: MSRSKRDNNFYSVEIGDSTFTVLKRYQNLKPIGSGAQGIVCAAYDAILERNVAIKKLSRPFQNQTHAKRAYRELVLMKCVNHKNIIGLLNVFTPQKSLEEFQDVYIVMELMDANLCQVIQMELDHERMSYLLYQMLCGIKHLHSAGIIHRDLKPSNIVVKSDCTLKILDFGLARTAGTSFMMAPFVVTRYYRAPEVILGMGYKENVDLWSVGCIMGEMVCHKILFPGRDYIDQWNKVIEQLGTPCPEFMKKLQPTVRTYVENRPKYAGYSFEKLFPDVLFPADSEHNKLKASQARDLLSKMLVIDASKRISVDEALQHPYINVWYDPSEAEAPPPKIPDKQLDEREHTIEEWKELIYKEVMDLEERTKNGVIRGQPSPLGAAVINGSQHPSSSSSVNDVSSMSTDPTLASDTDSSLEAAAGPLGCCR
# Tests used:
# [1] = test system: INS-1E cells; assay: Apoptotic markers, cytochrome c release and PDX1 in INS-1E cells under diabetogenic conditions; type: cell-based, rat; settings: 33.3 mM glucose for 48 h, overexpression of dnMST1
# From the text: (§1) Human islets were isolated from twenty pancreases of healthy organ donors and from five with T2D at the University of Illinois at Chicago or Lille University and cultured on extracellular matrix (ECM) coated dishes (Novamed, Jerusalem, Israel) as described previously (Schulthess et al., Cell. Metab. 9 (2009) 125-139). Islet purity was greater than 95% as judged by dithizone staining (if this degree of purity was not achieved by routine isolation, islets were handpicked). Islets from MST1^−/− mice and their WT littermates were isolated as described previously (Schulthess et al., Cell. Metab. 9 (2009) 125-139). […]
# At the end of the incubation periods, islets and INS1E cells were washed in ice-cold PBS and lysed in lysis buffer containing 20 mM Tris acetate, 0.27 M sucrose, 1 mM EDTA, 1 mM EGTA, 50 mM NaF, 1% Triton X-100, 5 mM sodium pyrophosphate and 10 mM β-glycerophosphate. […] Protein concentrations were determined with the BCA protein assay (Pierce). […] Membrane was developed using a chemiluminescence assay system (Pierce) and analyzed using DocIT®LS image acquisition 6.6a (UVP BioImaging Systems, Upland, Calif., USA). […]
# [2] = test system: PDX1; assay: PDX1 protein level, degradation and ubiquitination in HEK293 cells co-transfected with MST1; type: cell-based, mouse; settings: co-transfection with PDX1 in HEK293 cells
# From the text: pCMV-myc-MST1 and kinase-dead (MST1-K59; dnMST1) are described in Yamamoto et al., J. Clin. Invest. 111 (2003), 1463-1474. Mouse pB.RSV.PDX1-GFP is described in Kawamori et al., Diabetes 52 (2003) 2896-2904. pcDNA3 Myr-HA Akt1, HA-Ubiquitin and pCDNA3 Jnk1a1 (apf)(dn-JNK) plasmids were obtained from Addgene (Cambridge, Mass.). Mouse PDX1 mutants (T11, T126, T152, T155, T214 and T231) in pCGIG5 vector were generated by site-directed mutagenesis as described previously (Frogne et al., 7 (2012), e35233). All mutations were verified by sequencing. To make bacterial expression plasmids for PDX1 mutants, the complete mouse PDX1 CDS (wild type and mutants) has been amplified by PCR using a specific set of primers from pCGIG5 plasmids and cloned into a pGEX-6P-1 bacterial expression vector. The rat insulin driven luciferase vector (RIP-Luc) was constructed by subcloning a 700 by fragment containing −660 bp of the rat 2 insulin promoter into a pMCS-Green-Renilla-Luc vector (Thermo Scientific). pCMV-Red firefly Luc vector was obtained from Thermo Scientific.
# HEK293 cells were cultured in 10-cm cell culture dishes and transfected with HA-ubiquitin, PDX1 and MST1 expression plasmids for 48 h. For ubiquitination in human islets, 5000 islets per condition were transfected with ubiquitin plasmid. After 24 h, islets were infected with Ad-GFP or Ad-MST1 for 6 h and kept for another 48 h. […]
# [3] = test system: human islets; assay: MST1 overexpression (Ad-MST1)-induced apoptosis in human islets; type: cell-based; settings: Ad-MST1 48 h
# From the text: as §1
# Pancreatic tissues were processed as previously described (Shu et al., Diabetes 57 (2007), 645-53). […] Slides were mounted with Vectashield with 4′6-diamidino-2-phenylindole (DAPI) (Vector Labs). β-cell apoptosis for mouse sections or primary islets cultured on ECM dishes was analyzed by the terminal deoxynucleotidyl transferase-mediated dUTP nick-end labeling (TUNEL) technique according to the manufacturer's instructions (In Situ Cell Death Detection Kit, TMR red; Roche) and double stained for insulin. Fluorescence was analyzed using a Nikon MEA53200 (Nikon GmbH, Dusseldorf, Germany) microscope and images were acquired using NIS-Elements software (Nikon). […]
Molecule,glucose-induced caspase-3 and PARP cleavage [1],PDX1 level [2],MST1-induced increase in Bim and subsequent caspase-3 cleavage [3]
B1,completely inhibited,no effect,–
B2,–,–,prevented
